Assay results published in patent publication US20150368642A1, “LNA OLIGONUCLEOTIDE CARBOHYDRATE CONJUGATES” (HOFFMANN-LA ROCHE INC., priority 2013, published 2015).
Strand notation (5' to 3'): a small letter for the sugar, then the base; units joined by * are phosphorothioate-linked, units joined directly phosphodiester-linked; [ ] holds rarer units or linkages, { } end groups; capitals alone tell only the bases. l = locked nucleic acid (LNA); [5mC] = 5-methylcytosine; d = 2'-deoxy (DNA)

Experiments:
[1] = In vitro cleavage in serum; type: in vitro ADME; details: 200 μg/g
Description: (§1) Liver, kidney and serum (see table below) were spiked with oligonucleotide SEQ ID NO 21 to concentrations of 200 μg/g tissue. Liver and kidney samples collected from NMRI mice were homogenized in a homogenisation buffer (0.5% Igepal CA-630, 25 mM Tris pH 8.0, 100 mM NaCl, pH 8.0 (adjusted with 1 N NaOH). The homogenates were incubated for 24 hours at 37° and thereafter the homogenates were extracted with phenol-chloroform. The content of cleaved and non cleaved oligonucleotide in the extract from liver and kidney and from the serum were determined against a standard using the above HPLC method.

[2] = In vitro cleavage in kidney homogenate; type: in vitro ADME, NMRI mice; details: 200 μg/g tissue, 24 hours at 37°
Description: as §1

[3] = In vitro cleavage in liver homogenate; type: in vitro ADME, NMRI mice; details: 200 μg/g tissue, 24 hours at 37°
Description: as §1

HBV [4] = assay: HBV mouse hydrodynamic tailvein injection model, HBV DNA in liver by qPCR; type: in vivo, Balb/C mouse; details: Balb/C mice, single injection 24 hours before hydrodynamic injection; SEQ ID 55 2 and 10 mg/kg, SEQ ID 56 2.7 and 13.5 mg/kg
Text: An LNA oligomer can be assessed for antiviral effect in vivo in a mouse strain, such as BALB/c or C57B/6, where HBV replication can be established by hydrodynamic tail vein injection of a plasmid, such as pAAV/HBV1.3, expressing a partially repeated HBV pregenomic RNA (J Virol. 1995 October; 69(10):6158-69) or pAAV2/HBV1.3, a derivative thereof (WuxiAppTech, Wuxi, China). The injection of the plasmid in a high volume of saline, equal to 8-12% of the body mass of the mouse, will result in the accumulation and expression of the viral pregenomic RNA in the liver, subsequently leading to the establishment of an acute HBV infection. Treatment of the animals with an LNA oligomer can be initiated 1 or more days before the injection of the plasmid or 1 day after the injection of the plasmid. Delivery of the LNA oligomer in saline can be done by intravenous or subcutaneous injection.
An in vivo experiment was performed on SEQ ID 55 and SEQ ID 56, the latter being a GalNAC conjugate of the former (conj1a). The LNA compounds were tested for efficacy against HBV in the mouse hydrodynamic tailvein injection model using the Balb/C mouse strain. LNA compounds were be tested at equimolar doses; 2 and 10 mg/kg, single injection (SEQ ID 55) and at 2.7 and 13.5 mg/kg, single injection (SEQ ID 56). The LNA anti-HBV compounds were compared to saline and to entecavir, an inhibitor of the HBV reverse transcriptase. Entecavir was dosed p.o. daily at 0.1 mg/kg. Where applicable, the animals were treated with the LNA compound 24 hours before the hydrodynamic injection. Entecavir was given in daily doses as described starting 24 hours after the hydrodynamic injection. […] All the animals were monitored on a daily basis for body weight changes and clinical signs for the duration of the in vivo study. […] All the blood samples were collected in tubes containing heparin sodium The portion of the left lobe of each liver was used to determine the level of HBV DNA replication by qPCR, as copies per unit weight of liver in which the quantity of total HBV DNA level is subtracted by the quantity of pAAV2/HBV DNA level. […]

HBV [5] = details: WO2011/47312; cited from earlier work

Row | Substance | % cleaved after 24 hours in serum [1] | % cleaved after 24 hrs kidney homogenate [2] | % cleaved after 24 hrs liver homogenate [3] | effect on replication of HBV / HBV DNA level in the liver (HBV [4]) | effectiveness against HBV as highlighted in the art (HBV [5])
1 | 21 (TCAGCATTGGTATTCA; LNA gapmer conjugate, pattern not given here) [compound 21] | 0% | 95% | 83% | – | –
2 | SEQ ID NO 55: 5′-GsAsGsGscsastsasgscsasgs^mCsAsGsG-3′; HBV LNA gapmer disclosed in WO2011/47312 (lG*lA*lG*lG*dC*dA*dT*dA*dG*dC*dA*dG*l[5mC]*lA*lG*lG) [reference compound] | – | – | – | little effect on the replication of HBV in the liver | particularly effective against HBV
